Source: US20060263802A1 (CRUCELL HOLLAND B V, published 2006)

Legend:
Experiment in all cases: PEPSCAN ELISA, looped peptide, 10 ug/ml
[1] = target: looped/cyclic peptide … (rabies virus strain ERA)
[2] = target: looped/cyclic peptide … (rabies virus strain ERA); remark: listed apart in the source
[3] = target: looped/cyclic peptide … (rabies virus strain ERA); remark: listed apart in the source
[4] = target: looped/cyclic peptide … (rabies virus strain ERA); remark: listed apart in the source
[5] = target: looped/cyclic peptide … (rabies virus strain ERA); remark: listed apart in the source
[6] = target: looped/cyclic peptide … (rabies virus strain ERA); remark: listed apart in the source
[7] = target: looped/cyclic peptide … (rabies virus strain ERA); remark: listed apart in the source
[8] = target: looped/cyclic peptide … (rabies virus strain ERA); remark: listed apart in the source
[9] = target: looped/cyclic peptide … (rabies virus strain ERA); remark: listed apart in the source
[10] = target: looped/cyclic peptide … (rabies virus strain ERA); remark: listed apart in the source
[11] = target: looped/cyclic peptide … (rabies virus strain ERA); remark: listed apart in the source
[12] = target: looped/cyclic peptide … (rabies virus strain ERA); remark: listed apart in the source
[13] = target: looped/cyclic peptide … (rabies virus strain ERA); remark: listed apart in the source
[14] = target: looped/cyclic peptide … (rabies virus strain ERA); remark: listed apart in the source
[15] = target: looped/cyclic peptide … (rabies virus strain ERA); remark: listed apart in the source
[16] = target: looped/cyclic peptide … (rabies virus strain ERA); remark: listed apart in the source
[17] = target: looped/cyclic peptide … (rabies virus strain ERA); remark: listed apart in the source
[18] = target: looped/cyclic peptide … (rabies virus strain ERA); remark: listed apart in the source
[19] = target: looped/cyclic peptide … (rabies virus strain ERA); remark: listed apart in the source
[20] = target: looped/cyclic peptide … (rabies virus strain ERA); remark: listed apart in the source
[21] = target: looped/cyclic peptide … (rabies virus strain ERA); remark: listed apart in the source
[22] = target: looped/cyclic peptide … (rabies virus strain ERA); remark: listed apart in the source
[23] = target: looped/cyclic peptide … (rabies virus strain ERA); remark: listed apart in the source
[24] = target: looped/cyclic peptide … (rabies virus strain ERA); remark: listed apart in the source
[25] = target: looped/cyclic peptide … (rabies virus strain ERA); remark: listed apart in the source
[26] = target: looped/cyclic peptide … (rabies virus strain ERA); remark: listed apart in the source
[27] = target: looped/cyclic peptide … (rabies virus strain ERA); remark: listed apart in the source
[28] = target: looped/cyclic peptide … (rabies virus strain ERA); remark: listed apart in the source
[29] = target: looped/cyclic peptide … (rabies virus strain ERA); remark: listed apart in the source
[30] = target: looped/cyclic peptide … (rabies virus strain ERA); remark: listed apart in the source
[31] = target: looped/cyclic peptide … (rabies virus strain ERA); remark: listed apart in the source
[32] = target: looped/cyclic peptide … (rabies virus strain ERA); remark: listed apart in the source
[33] = target: looped/cyclic peptide … (rabies virus strain ERA); remark: listed apart in the source
[34] = target: looped/cyclic peptide … (rabies virus strain ERA); remark: listed apart in the source
[35] = target: looped/cyclic peptide … (rabies virus strain ERA); remark: listed apart in the source
[36] = target: looped/cyclic peptide … (rabies virus strain ERA); remark: listed apart in the source
[37] = target: looped/cyclic peptide … (rabies virus strain ERA); remark: listed apart in the source
[38] = target: looped/cyclic peptide … (rabies virus strain ERA); remark: listed apart in the source
[39] = target: looped/cyclic peptide … (rabies virus strain ERA); remark: listed apart in the source
[40] = target: looped/cyclic peptide … (rabies virus strain ERA); remark: listed apart in the source
[41] = target: looped/cyclic peptide … (rabies virus strain ERA); remark: listed apart in the source
[42] = target: looped/cyclic peptide … (rabies virus strain ERA); remark: listed apart in the source
[43] = target: looped/cyclic peptide … (rabies virus strain ERA); remark: listed apart in the source
[44] = target: looped/cyclic peptide … (rabies virus strain ERA); remark: listed apart in the source
[45] = target: looped/cyclic peptide … (rabies virus strain ERA); remark: listed apart in the source
[46] = target: looped/cyclic peptide … (rabies virus strain ERA); remark: listed apart in the source
[47] = target: looped/cyclic peptide … (rabies virus strain ERA); remark: listed apart in the source
[48] = target: looped/cyclic peptide … (rabies virus strain ERA); remark: listed apart in the source
[49] = target: looped/cyclic peptide … (rabies virus strain ERA); remark: listed apart in the source
[50] = target: looped/cyclic peptide … (rabies virus strain ERA); remark: listed apart in the source
[51] = target: looped/cyclic peptide … (rabies virus strain ERA); remark: listed apart in the source
[52] = target: looped/cyclic peptide … (rabies virus strain ERA); remark: listed apart in the source
[53] = target: looped/cyclic peptide … (rabies virus strain ERA); remark: listed apart in the source
[54] = target: looped/cyclic peptide … (rabies virus strain ERA); remark: listed apart in the source
[55] = target: looped/cyclic peptide … (rabies virus strain ERA); remark: listed apart in the source
[56] = target: looped/cyclic peptide … (rabies virus strain ERA); remark: listed apart in the source
[57] = target: looped/cyclic peptide … (rabies virus strain ERA); remark: listed apart in the source
[58] = target: looped/cyclic peptide … (rabies virus strain ERA); remark: listed apart in the source
[59] = target: looped/cyclic peptide … (rabies virus strain ERA); remark: listed apart in the source
[60] = target: looped/cyclic peptide … (rabies virus strain ERA); remark: listed apart in the source
[61] = target: looped/cyclic peptide … (rabies virus strain ERA); remark: listed apart in the source
[62] = target: looped/cyclic peptide … (rabies virus strain ERA); remark: listed apart in the source
[63] = target: looped/cyclic peptide … (rabies virus strain ERA); remark: listed apart in the source
[64] = target: looped/cyclic peptide … (rabies virus strain ERA); remark: listed apart in the source
[65] = target: looped/cyclic peptide … (rabies virus strain ERA); remark: listed apart in the source
[66] = target: looped/cyclic peptide … (rabies virus strain ERA); remark: listed apart in the source
[67] = target: looped/cyclic peptide … (rabies virus strain ERA); remark: listed apart in the source
[68] = target: looped/cyclic peptide … (rabies virus strain ERA); remark: listed apart in the source
[69] = target: looped/cyclic peptide … (rabies virus strain ERA); remark: listed apart in the source
[70] = target: looped/cyclic peptide … (rabies virus strain ERA); remark: listed apart in the source
[71] = target: looped/cyclic peptide … (rabies virus strain ERA); remark: listed apart in the source
[72] = target: looped/cyclic peptide … (rabies virus strain ERA); remark: listed apart in the source
[73] = target: looped/cyclic peptide … (rabies virus strain ERA); remark: listed apart in the source
[74] = target: looped/cyclic peptide … (rabies virus strain ERA); remark: listed apart in the source
[75] = target: looped/cyclic peptide … (rabies virus strain ERA); remark: listed apart in the source
[76] = target: looped/cyclic peptide … (rabies virus strain ERA); remark: listed apart in the source
[77] = target: looped/cyclic peptide … (rabies virus strain ERA); remark: listed apart in the source
[78] = target: looped/cyclic peptide … (rabies virus strain ERA); remark: listed apart in the source
[79] = target: looped/cyclic peptide … (rabies virus strain ERA); remark: listed apart in the source
[80] = target: looped/cyclic peptide … (rabies virus strain ERA); remark: listed apart in the source
[81] = target: looped/cyclic peptide … (rabies virus strain ERA); remark: listed apart in the source
[82] = target: looped/cyclic peptide … (rabies virus strain ERA); remark: listed apart in the source
[83] = target: looped/cyclic peptide … (rabies virus strain ERA); remark: listed apart in the source
[84] = target: looped/cyclic peptide … (rabies virus strain ERA); remark: listed apart in the source
[85] = target: looped/cyclic peptide … (rabies virus strain ERA); remark: listed apart in the source
[86] = target: looped/cyclic peptide … (rabies virus strain ERA); remark: listed apart in the source
[87] = target: looped/cyclic peptide … (rabies virus strain ERA); remark: listed apart in the source
[88] = target: looped/cyclic peptide … (rabies virus strain ERA); remark: listed apart in the source
[89] = target: looped/cyclic peptide … (rabies virus strain ERA); remark: listed apart in the source
[90] = target: looped/cyclic peptide … (rabies virus strain ERA); remark: listed apart in the source
[91] = target: looped/cyclic peptide … (rabies virus strain ERA); remark: listed apart in the source

B1: human monoclonal antibody CRJA (antibody, V domains shown)
VH: EVQLLESGGGLVQPGGSLRLSCAASGFTFSNYAMSWVRQAPGKGLEWVSAISASGHSTYLADSVKGRFTISRDNSKNTLYLQMNSLRAEDTAVYYCAKDREVTMIVVLNGGFDYWGQGTRVTVSS
VL: EIVLTQSPATLSLSPGERATLACRASQTASRYLAWYQQKPGQAPRLLIYDTSNRATGIPARFSGSGSGTDFTLSISSLEPEDFAVYYCQQRFNWPWTFGQGTKVEFK
How did the OD [1] turn out when B1 was run?
Its OD is 58 OD.

And the OD [2]?
The OD was 115 OD.

And the OD [3]?
Its OD is 90 OD.

And the OD [4]?
Its OD is 110 OD.

What about the OD [5] of the same binder?
The OD was 113 OD.

And the OD [6]?
The OD was 100 OD.

And the OD [7]?
The OD was 110 OD.

What about the OD [8] of the same binder?
Its OD is 104 OD.

And the OD [9]?
The OD was 87 OD.

And the OD [10]?
The OD was 42 OD.

And the OD [11]?
Its OD is 71 OD.

And the OD [12]?
The OD was 82 OD.

What about the OD [13] of the same binder?
Its OD is 98 OD.

And the OD [14]?
The OD was 105 OD.

What about the OD [15] of the same binder?
The OD was 104 OD.

And the OD [16]?
Its OD is 113 OD.

And the OD [17]?
The OD was 103 OD.

What about the OD [18] of the same binder?
The OD was 120 OD.

What about the OD [19] of the same binder?
The OD was 94 OD.

And the OD [20]?
The OD was 103 OD.

What about the OD [21] of the same binder?
Its OD is 92 OD.

What about the OD [22] of the same binder?
Its OD is 87 OD.

What about the OD [23] of the same binder?
The OD was 98 OD.

What about the OD [24] of the same binder?
The OD was 115 OD.

And the OD [25]?
The OD was 55 OD.

And the OD [26]?
The OD was 79 OD.

And the OD [27]?
Its OD is 86 OD.

What about the OD [28] of the same binder?
Its OD is 96 OD.

And the OD [29]?
The OD was 104 OD.

And the OD [30]?
Its OD is 108 OD.

What about the OD [31] of the same binder?
Its OD is 96 OD.

And the OD [32]?
The OD was 98 OD.

What about the OD [33] of the same binder?
Its OD is 98 OD.

And the OD [34]?
Its OD is 92 OD.

And the OD [35]?
Its OD is 89 OD.

What about the OD [36] of the same binder?
The OD was 43 OD.

What about the OD [37] of the same binder?
The OD was 68 OD.

What about the OD [38] of the same binder?
Its OD is 90 OD.

And the OD [39]?
Its OD is 98 OD.

And the OD [40]?
The OD was 104 OD.

What about the OD [41] of the same binder?
The OD was 100 OD.

What about the OD [42] of the same binder?
The OD was 132 OD.

What about the OD [43] of the same binder?
The OD was 110 OD.

What about the OD [44] of the same binder?
The OD was 165 OD.

What about the OD [45] of the same binder?
Its OD is 114 OD.

What about the OD [46] of the same binder?
Its OD is 127 OD.

And the OD [47]?
The OD was 96 OD.

And the OD [48]?
Its OD is 105 OD.

And the OD [49]?
The OD was 93 OD.

And the OD [50]?
Its OD is 52 OD.

And the OD [51]?
Its OD is 71 OD.

And the OD [52]?
Its OD is 71 OD.

And the OD [53]?
The OD was 105 OD.

And the OD [54]?
The OD was 96 OD.

And the OD [55]?
Its OD is 117 OD.

And the OD [56]?
Its OD is 160 OD.

And the OD [57]?
The OD was 104 OD.

What about the OD [58] of the same binder?
Its OD is 105 OD.

What about the OD [59] of the same binder?
The OD was 105 OD.

And the OD [60]?
The OD was 78 OD.

And the OD [61]?
Its OD is 46 OD.

What about the OD [62] of the same binder?
The OD was 120 OD.

What about the OD [63] of the same binder?
The OD was 68 OD.

And the OD [64]?
Its OD is 83 OD.

And the OD [65]?
The OD was 100 OD.

And the OD [66]?
Its OD is 92 OD.

And the OD [67]?
Its OD is 100 OD.

And the OD [68]?
The OD was 104 OD.

And the OD [69]?
Its OD is 112 OD.

And the OD [70]?
Its OD is 87 OD.

And the OD [71]?
The OD was 112 OD.

What about the OD [72] of the same binder?
The OD was 78 OD.

What about the OD [73] of the same binder?
Its OD is 110 OD.

What about the OD [74] of the same binder?
Its OD is 92 OD.

What about the OD [75] of the same binder?
The OD was 54 OD.

What about the OD [76] of the same binder?
Its OD is 78 OD.

What about the OD [77] of the same binder?
Its OD is 88 OD.

What about the OD [78] of the same binder?
The OD was 44 OD.

And the OD [79]?
The OD was 90 OD.

What about the OD [80] of the same binder?
The OD was 165 OD.

And the OD [81]?
The OD was 108 OD.

What about the OD [82] of the same binder?
The OD was 94 OD.

What about the OD [83] of the same binder?
Its OD is 94 OD.

And the OD [84]?
The OD was 73 OD.

And the OD [85]?
The OD was 71 OD.

What about the OD [86] of the same binder?
The OD was 114 OD.

What about the OD [87] of the same binder?
Its OD is 45 OD.

What about the OD [88] of the same binder?
Its OD is 75 OD.

What about the OD [89] of the same binder?
The OD was 84 OD.

And the OD [90]?
Its OD is 104 OD.

What about the OD [91] of the same binder?
The OD was 108 OD.
